Measured values: patent US5684129

Key:
[1] = biological target: Type 1 human interferon receptor complex (human) (UniProt P17181)
[2] = biological target: Type 1 human interferon receptor complex (human) (UniProt P17181); assay: 125I-ligand binding to T98G cells at +4° C., Scatchard analysis, high affinity component

Substance	antiviral specific activity (EMCV on T98G cells) [1]	Kd [2]
IFN-alpha1 Nδ4 (ligand)	7.1e+06 U/mg protein	–
IFN-alphaCon1 (ligand)	3e+09 U/mg protein	7.7 pM
